Source: patent publication US20230212549A1 (3B PHARMACEUTICALS, published 2023)
“And” between values parts separate entries of the source, which are not always exact repeats. Equal entries are not always repeated. Numbered stars: 1 amine (or outer) side, 2 acyl side, 3 side chain; on linkers, the order of the positions; unused ones are H or OH. Bridge positions count the residues as written; N and C are the ends. Square brackets hold non-standard residues; d marks the D form. Primed or numbered codes have the meaning given here. * marks the point of attachment. Ttds″ = 1,13-diamino-4,7,10-trioxatridecan-succinamic acid spacer, O=C(CCC(=O)[*:2])NCCCOCCOCCOCCCN[*:1]; Ttds = 1,13-diamino-4,7,10-trioxatridecan-succinamic acid, O=C(CCC(=O)[*:2])NCCCOCCOCCOCCCN[*:1]; DOTA = O=C(O)CN1CCN(CC(=O)O)CCN(CC(=O)*)CCN(CC(=O)O)CC1; 1Nal = N[C@@H](Cc1cccc2ccccc12)C(=O)O; mXylylene = c1cc(C[*:1])cc(C[*:2])c1; PentylNH‑urea = CCCCCNC(=O)*; Hexanoyl = CCCCCC(=O)*

B1: Ac-Met-[Cys(3MeBn)-Pro-pro-Thr-Glu-Phe-Cys]-Asp-His-Phe-Arg-Asp-NH2 (peptide)
peptide: Ac-MCP[dP]TEFCDHFRD-NH2
modifications: linker 2-8 via mXylylene
SMILES: CSCC[C@H](NC(C)=O)C(=O)N[C@H]1CSCc2cccc(c2)CSC[C@@H](C(=O)N[C@@H](CC(=O)O)C(=O)N[C@@H](Cc2c[nH]cn2)C(=O)N[C@@H](Cc2ccccc2)C(=O)N[C@@H](CCCNC(=N)N)C(=O)N[C@@H](CC(=O)O)C(N)=O)NC(=O)[C@H](Cc2ccccc2)NC(=O)[C@H](CCC(=O)O)NC(=O)[C@H]([C@@H](C)O)NC(=O)[C@H]2CCCN2C(=O)[C@@H]2CCCN2C1=O
notes: also called 3BP-3177
B2: DOTA-Ttds-Glu-[Cys(3MeBn)-Pro-Pro-Thr-Glu-Phe-Cys]-Asp-His-Phe-Arg-Asp-NH2 (peptide)
peptide: {DOTA}-[Ttds″]ECPPTEFCDHFRD-NH2
modifications: linker 3-9 via mXylylene
SMILES: C[C@@H](O)[C@@H]1NC(=O)[C@@H]2CCCN2C(=O)[C@@H]2CCCN2C(=O)[C@@H](NC(=O)[C@H](CCC(=O)O)NC(=O)CCC(=O)NCCCOCCOCCOCCCNC(=O)CN2CCN(CC(=O)O)CCN(CC(=O)O)CCN(CC(=O)O)CC2)CSCc2cccc(c2)CSC[C@@H](C(=O)N[C@@H](CC(=O)O)C(=O)N[C@@H](Cc2c[nH]cn2)C(=O)N[C@@H](Cc2ccccc2)C(=O)N[C@@H](CCCNC(=N)N)C(=O)N[C@@H](CC(=O)O)C(N)=O)NC(=O)[C@H](Cc2ccccc2)NC(=O)[C@H](CCC(=O)O)NC1=O
notes: also called 3BP-3173
B3: DOTA-Ttds-Phe-[Cys(3MeBn)-Pro-Pro-Thr-Glu-Phe-Cys]-Asp-His-Phe-Arg-Asp-NH2 (peptide)
peptide: {DOTA}-[Ttds]FCPPTEFCDHFRD-NH2
modifications: linker 3-9 via mXylylene
SMILES: C[C@@H](O)[C@@H]1NC(=O)[C@@H]2CCCN2C(=O)[C@@H]2CCCN2C(=O)[C@@H](NC(=O)[C@H](Cc2ccccc2)NC(=O)CCC(=O)NCCCOCCOCCOCCCNC(=O)CN2CCN(CC(=O)O)CCN(CC(=O)O)CCN(CC(=O)O)CC2)CSCc2cccc(c2)CSC[C@@H](C(=O)N[C@@H](CC(=O)O)C(=O)N[C@@H](Cc2c[nH]cn2)C(=O)N[C@@H](Cc2ccccc2)C(=O)N[C@@H](CCCNC(=N)N)C(=O)N[C@@H](CC(=O)O)C(N)=O)NC(=O)[C@H](Cc2ccccc2)NC(=O)[C@H](CCC(=O)O)NC1=O
notes: also called 3BP-3171
B4: Hex-[Cys(3MeBn)-Pro-Pro-Thr-Glu-1Ni-Cys]-NH2 (peptide)
peptide: Hexanoyl-CPPTE[1Nal]C-NH2
modifications: linker 1-7 via mXylylene
SMILES: CCCCCC(=O)N[C@H]1CSCc2cccc(c2)CSC[C@@H](C(N)=O)NC(=O)[C@H](Cc2cccc3ccccc23)NC(=O)[C@H](CCC(=O)O)NC(=O)[C@H]([C@@H](C)O)NC(=O)[C@@H]2CCCN2C(=O)[C@@H]2CCCN2C1=O
notes: also called 3BP-3361
B5: Hex-[Cys(3MeBn)-Pro-Pro-Thr-Gln-Trp-Cys]-NH2 (peptide)
peptide: Hexanoyl-CPPTQWC-NH2
modifications: linker 1-7 via mXylylene
SMILES: CCCCCC(=O)N[C@H]1CSCc2cccc(c2)CSC[C@@H](C(N)=O)NC(=O)[C@H](Cc2c[nH]c3ccccc23)NC(=O)[C@H](CCC(N)=O)NC(=O)[C@H]([C@@H](C)O)NC(=O)[C@@H]2CCCN2C(=O)[C@@H]2CCCN2C1=O
notes: also called 3BP-3408
B6: Hex-[Cys(3MeBn)-Pro-Pro-Thr-Glu-Phe-Cys]-OH (peptide)
peptide: Hexanoyl-CPPTEFC-OH
modifications: linker 1-7 via mXylylene
SMILES: CCCCCC(=O)N[C@H]1CSCc2cccc(c2)CSC[C@@H](C(=O)O)NC(=O)[C@H](Cc2ccccc2)NC(=O)[C@H](CCC(=O)O)NC(=O)[C@H]([C@@H](C)O)NC(=O)[C@@H]2CCCN2C(=O)[C@@H]2CCCN2C1=O
notes: also called 3BP-3370
B7: Ac-Met-[Cys(3MeBn)-Pro-Pro-thr-Glu-Phe-Cys]-Asp-His-Phe-Arg-Asp-NH2 (peptide)
peptide: Ac-MCPP[dT]EFCDHFRD-NH2
modifications: linker 2-8 via mXylylene
SMILES: CSCC[C@H](NC(C)=O)C(=O)N[C@H]1CSCc2cccc(c2)CSC[C@@H](C(=O)N[C@@H](CC(=O)O)C(=O)N[C@@H](Cc2c[nH]cn2)C(=O)N[C@@H](Cc2ccccc2)C(=O)N[C@@H](CCCNC(=N)N)C(=O)N[C@@H](CC(=O)O)C(N)=O)NC(=O)[C@H](Cc2ccccc2)NC(=O)[C@H](CCC(=O)O)NC(=O)[C@@H]([C@H](C)O)NC(=O)[C@@H]2CCCN2C(=O)[C@@H]2CCCN2C1=O
notes: also called 3BP-3178
B8: PentylNH-urea-[Cys(3MeBn)-Pro-Pro-Thr-Gln-Phe-Cys]-Asp-NH2 (peptide)
peptide: {PentylNH‑urea}-CPPTQFCD-NH2
modifications: linker 1-7 via mXylylene
SMILES: CCCCCNC(=O)N[C@H]1CSCc2cccc(c2)CSC[C@@H](C(=O)N[C@@H](CC(=O)O)C(N)=O)NC(=O)[C@H](Cc2ccccc2)NC(=O)[C@H](CCC(N)=O)NC(=O)[C@H]([C@@H](C)O)NC(=O)[C@@H]2CCCN2C(=O)[C@@H]2CCCN2C1=O
notes: also called 3BP-3425
B9: Ac-Met-[Cys(3MeBn)-Pro-Pro-Thr-Glu-Phe-Cys]-Ala-His-Phe-Arg-Asp-NH2 (peptide)
peptide: Ac-MCPPTEFCAHFRD-NH2
modifications: linker 2-8 via mXylylene
SMILES: CSCC[C@H](NC(C)=O)C(=O)N[C@H]1CSCc2cccc(c2)CSC[C@@H](C(=O)N[C@@H](C)C(=O)N[C@@H](Cc2c[nH]cn2)C(=O)N[C@@H](Cc2ccccc2)C(=O)N[C@@H](CCCNC(=N)N)C(=O)N[C@@H](CC(=O)O)C(N)=O)NC(=O)[C@H](Cc2ccccc2)NC(=O)[C@H](CCC(=O)O)NC(=O)[C@H]([C@@H](C)O)NC(=O)[C@@H]2CCCN2C(=O)[C@@H]2CCCN2C1=O
notes: also called 3BP-3194

Target: Recombinant human FAP (R&D systems, #3715-SE) (human, UniProt Q12884 26-760)
Assay: cell-based or functional assay

| Binder | pIC50 Category (Activity) |
| --- | --- |
| B1 | 7.1 pIC50 and 8 pIC50 |
| B2 | 7.1 pIC50 and 8 pIC50 |
| B3 | 7.1 pIC50 and 8 pIC50 |
| B4 | 7.1 pIC50 and 8 pIC50 |
| Hexanoyl-CPPTQFCD-NH2 (linker 1-7 via tMeBn(DOTA-NH), also called 3BP-3556) [Hex-[Cys(tMeBn(DOTA-NH))-Pro-Pro-Thr-Gln-Phe-Cys]-Asp-NH2] | 7.1 pIC50 and 8 pIC50 |
| B5 | 7.1 pIC50 and 8 pIC50 |
| B6 | 7.1 pIC50 and 8 pIC50 |
| B7 | 7.1 pIC50 and 8 pIC50 |
| B8 | > 8 pIC50 |
| B9 | 7.1 pIC50 and 8 pIC50 |

Target: T1, fibroblast activation protein (FAP) on FAP-expressing human WI-38 fibroblasts (human, UniProt Q12884 1-760)
T1 construct: also called human FAP
Assay: competitive FACS, WI-38 cells, vs Cy5 tracer m3; B = pIC50 7.1-8.0

| Binder | pIC50 Category (FACS) |
| --- | --- |
| B1 | 7.1 pIC50 and 8 pIC50 |
| B2 | 7.1 pIC50 and 8 pIC50 |
| B3 | 7.1 pIC50 and 8 pIC50 |
| B4 | 7.1 pIC50 and 8 pIC50 |
| Hexanoyl-CPPTQFCD-NH2 (linker 1-7 via tMeBn(DOTA-NH), also called 3BP-3556) [Hex-[Cys(tMeBn(DOTA-NH))-Pro-Pro-Thr-Gln-Phe-Cys]-Asp-NH2] | 7.1 pIC50 and 8 pIC50 |
| B5 | 7.1 pIC50 and 8 pIC50 |
| B6 | 7.1 pIC50 and 8 pIC50 |
| B7 | 7.1 pIC50 and 8 pIC50 |
| B8 | 7.1 pIC50 and 8 pIC50 |
| B9 | 7.1 pIC50 and 8 pIC50 |
